Data published in the DeepSol protein solubility set.

assay: soluble on expression in E. coli; label from the status in PepcDB or PDB records

Soluble on expression in E. coli, soluble:
GMSNEHQLLVGLLKKLKDDALILPTLPEVAMRVQEVVGRPDSSLKQVAEIIGQDAAISARIIKVANSALYSRGVPAENINSAVTRIGLTQIKSIATSVAMEQLFISTNEMVWEVMDEVWRTSIDVTAAACSLLQIYNKKHPGSGLNYDTLTLAGLVHNIGALPVLTEAEAHPEMFTTIEHLRSLVRKMQGPIGRAVLKSWDFAPEVMEVVERWADLPYLGDHVSYLDFIRAAAFYTGELRAGNELEQRLDVFVKRGLPVSPEDLGSDAFLDSYHSIKASYE, GMSNINYVILTVASVDFSYRETMARLMSSYSKDLIDNAGAKGTRFGSIGTGDHAGSLIFIQFYDDLTGYQKALEIQSKSSVFKEIMDSGKANIYLRNISTSLPTKFEQSYEHPKYIVLTRAEAAMSDKDKFLNCINDTASCFKDNGALTLRFGNLLTGSNVGNYLLGVGYPSMEAIEKTYDELLAHSSYKELMTFAKVNMRNIIKIL, GMSRDRLYTWAGLWRSPSSSWEALRLEDDQAESQLRAPDERSGLPYQLDYRLRWDADWHLREAVFHVESETGVRKLHLLADGRGHWQDGDGEALPAFDGCLDIDIWPSPFTNTFPIRRLGLADGQRAEIRALYIEAPALEPRSMRQAYTRLDASHYLYENLEGSAFKAVLLVDEQGLVIDYPGLFQRL, GMSRTNINFNNKRTELANKIWDIFIANGYENTTLAFIINKLGISKGALYHYFSSKEECADAAIENRVAFFSNEVLKESEEGLNSIERLKKILLAGIKITSVNEQVKEINSPSNKIFHQKLMVAIIKYFAPIYADIISQGNEEGVFKVKYPLETAEIILTLSHFYLDEDLFKWKKEDMSLKLTAFKETLIKILDADEDTFDFIK, GMTGAVETESMKTVRIREKIKKFLGDRPRNTAEILEHINSTMRHGTTSQQLGNVLSKDKDIVKVGYIKRSGILSGGYDICEWATRNWVAEHCPEWTEGQPIILNEEGDFTLGPLPE, GMTQLDTWLANTKPLIPVIVIDDLVHAIPMAKALVAGGVHLLEVTLRTEAGLAAISAIKKAVPEAIVGAGTVCTADDFQKAIDAGAQFIVSPGLTPELIEKAKQVKLDGQWQGVFLPGVATASEVMIAAQAGITQLKCFPASAIGGAKLLKAWSGPFPDIQFCPTGGISKDNYKEYLGLPNVICAGGSWLTESKLLIEGDWNEVTRRASEIVKLSDI, GMTTQTATDFMEIVKGRRSIRNYDTNVKISKEEMTQILEEATLAPSSVNMQPWRFLVIDSEEGKATLAPLAKFNQVQVETSSAVIAVFGDMKAIDQLENIYDTAVEKGLMPQEVRDRQVPAIQGMYENVPASALKDSILIDSGLVSMQLMLVARAHGYDTNPIGGYEKDQIAEAFGMEKDRYVPVMLLSIGKAVDAGYPSVRLPINDIADWK, GMTYELSTDREFDLIAIGRACIDLNAVEYNRPMEETMTFSKYVGGSPANIVIGSSKLGLKAGFIGKIADDQHGRFIESYMRGVGVDTSNLVVDQEGHKTGLAFTEIKSPEECSILMYRQDVADLYLSPEEVNEAYIRRSKLLLVSGTALSKSPSREAVLKAIRLAKRNDVKVVFELDYRPYSWETPEETAVYYSLVAEQSDIVIGTREEFDVLENRTEKGDNDETIRYLFKHSPELIVIKHGVEGSFAYTKAGEAYRGYAYKTKVLKTFGAGDSYASAFLYALISGKGIETALKYGSASASIVVSKHSSSDAMPSVEEIEALIEKDETITIA, GNSIASCADEQPHIGNYRLLKTIGKGNFAKVKLARHILTGREVAIKIIDKTQLNPTSLQKLFREVRIMKILNHPNIVKLFEVIETEKTLYLIMEYASGGEVFDYLVAHGRMKEKEARSKFRQIVSAVQYCHQKRIVHRDLKAENLLLDADMNIKIADFGFSNEFTVGGKLDAFCGAPPYAAPELFQGKKYDGPEVDVWSLGVILYTLVSGSLPFDGQNLKELRERVLRGKYRIPFYMSTDCENLLKRFLVLNPIKRGTLEQIMKDRWINAGHEEDELKPFVEPELDISDQKRIDIMVGMGYSQEEIQESLSKMKYDEITATYLLLGRK
